Source: article PMC6698748

How the values were obtained:
[1] = molecular target: MtsR (wild type, recombinant, untagged) (Streptococcus pyogenes (group A streptococcus), strain MGAS10870, serotype M3); assay: SEC
[2] = molecular target: MtsR F187A (Streptococcus pyogenes (group A streptococcus), strain MGAS10870, serotype M3); assay: SEC

MtsR (wild type, recombinant, untagged) (natural protein)
stoichiometry N [1]: 2

MtsR F187A (natural protein)
stoichiometry N [2]: 2
